These are literature values, as cited in article PMC6281825.

A word on the Kd: it is the equilibrium constant for the complex coming apart.

The target of the data set is Complement C5 (Homo sapiens) (UniProt P01031).

Take eculizumab: the Kd is 100 pM.
